According to patent publication US20020045192A1, “Arf and HDM2 interaction domains and methods of use thereof” (St. Jude Children's Research Hospital, priority 2001, published 2002):
Where no end group is shown, it is not given here.

Target: T1, Hdm2 210-304 (Homo sapiens, UniProt Q00987)
T1 construct: poly-His (thrombin-cleavable, from pET28a) (cleaved yes); made in house; host or cells: E. coli BL21 (DE3)
Test: SPR binding of Arf library peptides to immobilized His-tagged Hdm2 210-304
Conditions: 15 amino acid library peptides, binding for 10 minutes
Description: Binding studies were performed using a Biacore 3000 surface plasmon resonance (SPR) instrument (Biacore, Inc.). A Tetra-His™ Antibody (Qiagen, Inc.; Cat. #34670) was covalently attached to a carboxymethylated gold surface (C-1 chip; Biacore, Inc.). The carboxymethyl groups on the surface were activated with N-ethyl-N′-(3-dimethylaminopropyl) carbodiimide (EDC) and N-hydroxysuccinimide (NHS) and the antibody was attached at pH 7.4 in 20 mM sodium phosphate buffer, 150 mM NaCl (PBS). Reactive sites remaining on the surface were blocked by reaction with ethanolamine. […] Binding was measured by flowing the non-His-tagged analyte through the reference and ligand-containing flow cells in sequence. […] Changes in the SPR response due to solvent differences and the injection process were monitored by injection of HBS-N buffer alone. […]
Two libraries of peptides 15 amino acids in length were synthesized based on the sequence of exon 1β of mouse p19^Arf and the entire sequence of human p14^Arf. […] The ability of these peptides to bind Hdm2 fragments was determined using the surface plasmon resonance (SPR) technique with a Biacore 3000 instrument. […] Relative binding affinity was judged on the basis of the maximal SPR signal detected after binding for 10 minutes.

T1 sequence (Q00987 210-304): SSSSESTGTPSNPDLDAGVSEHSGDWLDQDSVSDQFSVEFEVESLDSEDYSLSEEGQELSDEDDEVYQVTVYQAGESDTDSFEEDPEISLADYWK

binding to Hdm2 210-304 (maximal SPR signal) | Substance
binds | human Arf residues 86-100: 15 amino acid human p14^Arf library peptide spanning residues 86-100, contains the NoLS RRPR (LRRPRHSHPTRARRC; not fully specified (N-terminus, C-terminus); UniProt Q8N726 86-100, looked up, fragment)
bind | mouse p19^Arf residues 31-45: 15 amino acid mouse p19^Arf library peptide spanning residues 31-45, contains the RRPR motif (RRPRTASCALAFVNM; UniProt Q64364 31-45, looked up, fragment)
